# Reference: patent publication US20250019454A1 (BIOCYTOGEN PHARMACEUTICALS BEIJING, published 2025)
# Positions count from the first letter of the chain named.
# T1: His-tagged human TNFR1 (Human TNFR1/CD120a/TNFRSF1A Protein, His Tag, Acrobiosystems Cat #: TN1-5222) (human, UniProt P19438 30-211)
# T1 construct: Bought protein; also called hTNFR1-His; hTNFR 1-His; not shown: His tag
# T1 sequence (looked up): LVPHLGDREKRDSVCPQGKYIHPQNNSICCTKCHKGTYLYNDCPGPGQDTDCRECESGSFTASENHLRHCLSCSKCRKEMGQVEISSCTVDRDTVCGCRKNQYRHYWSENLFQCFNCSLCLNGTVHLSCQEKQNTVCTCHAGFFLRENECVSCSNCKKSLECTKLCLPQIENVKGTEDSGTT
# T2: His-tagged human TNFR2 (Human TNFR2/CD120b/TNFRSF1B Protein, His Tag, Acrobiosystems Cat #: TN2-5227) (human, UniProt P20333 23-257)
# T2 construct: Bought protein; also called hTNFR2-His; Recombinant human TNFR2 proteins with His-tag; not shown: His tag
# T2 sequence: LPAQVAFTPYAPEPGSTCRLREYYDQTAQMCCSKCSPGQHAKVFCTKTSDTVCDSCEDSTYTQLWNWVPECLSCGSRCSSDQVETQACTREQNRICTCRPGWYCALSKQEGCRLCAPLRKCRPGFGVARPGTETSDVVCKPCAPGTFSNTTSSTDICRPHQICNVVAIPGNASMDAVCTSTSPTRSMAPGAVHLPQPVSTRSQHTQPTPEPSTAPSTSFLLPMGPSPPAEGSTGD
# T3: human TNFR2 (expressed on cells) (human, UniProt P20333 23-461)
# T3 construct: also called hTNFR2; human TNF Receptor 2
# T3 sequence: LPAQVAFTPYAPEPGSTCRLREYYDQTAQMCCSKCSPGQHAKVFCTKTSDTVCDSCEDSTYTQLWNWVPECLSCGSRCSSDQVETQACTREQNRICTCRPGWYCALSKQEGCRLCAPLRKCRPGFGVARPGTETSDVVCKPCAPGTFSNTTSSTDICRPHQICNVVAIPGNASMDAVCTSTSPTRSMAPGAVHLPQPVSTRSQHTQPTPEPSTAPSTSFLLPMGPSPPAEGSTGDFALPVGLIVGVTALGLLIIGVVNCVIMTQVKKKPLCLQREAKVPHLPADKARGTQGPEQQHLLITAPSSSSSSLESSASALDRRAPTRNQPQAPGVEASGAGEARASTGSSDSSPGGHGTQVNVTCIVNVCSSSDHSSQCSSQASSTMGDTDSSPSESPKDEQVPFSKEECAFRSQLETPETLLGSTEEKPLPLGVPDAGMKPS
# T4: ΔCRD3-TNFR2 protein (with CRD3 deletion), on CHO-S cells (human, UniProt P20333 23-461)
# T4 construct: also called CHO-SΔCRD3-TNFR2; TNFR2 lacking CRD3
# T4 sequence: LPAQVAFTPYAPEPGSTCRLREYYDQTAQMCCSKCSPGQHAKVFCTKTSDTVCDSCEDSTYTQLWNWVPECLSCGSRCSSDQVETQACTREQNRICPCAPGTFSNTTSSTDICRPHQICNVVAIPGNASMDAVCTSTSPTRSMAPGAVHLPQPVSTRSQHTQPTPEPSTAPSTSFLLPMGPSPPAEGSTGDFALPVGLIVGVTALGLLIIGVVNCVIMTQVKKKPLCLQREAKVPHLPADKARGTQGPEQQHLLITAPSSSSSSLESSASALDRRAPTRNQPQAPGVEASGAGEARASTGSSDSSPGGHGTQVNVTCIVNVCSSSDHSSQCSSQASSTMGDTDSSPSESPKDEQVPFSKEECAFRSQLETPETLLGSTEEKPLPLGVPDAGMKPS
# B1: BC-1F10-IgG1 (antibody, V domains shown)
# VH: QVQLQQWGAGLLKPSETLSLICAVYDGSFSGDYWSWIRQPPGKGLEWIGEINHSGSTNYNPSLKSRVTISVDTSKNQFSLKLSSVTAADTAVYYCARGHWNYDYYYGMDVWGQGTTVTVSS
# VL: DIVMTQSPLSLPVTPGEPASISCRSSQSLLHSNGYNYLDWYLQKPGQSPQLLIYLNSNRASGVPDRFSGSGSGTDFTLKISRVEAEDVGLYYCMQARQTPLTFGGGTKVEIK
# notes: Human VH/VL joined to the human IgG1 subtype
# B2: BC-1B6-IgG1 (antibody, V domains shown)
# VH: QVQLVESGGGVVQPGRSLRLSCAASGFTFSNFGMHWVRQAPGKGLEWVAVIWYEGSDKYYADSVKGRFTISRDNSKNTLYLQMNSLRAEDTAVYYCARDSSWGFLLYGMDVWGQGTTVTVSS
# VL: DVVMTQSPLSLPVTLGQPASISCRSSRSLEYSDGNTYLNWFQQRPGQSPRRLIYKVSNRDSGVPDRFSGSGSGTAFTLKISGVEAEDVGVYYCMQGTHWPPTFGGGTKVEIK
# notes: as for B1
# B3: BC-1C3-IgG1 (antibody, V domains shown)
# VH: QVQLVESGGGVVHPGKSLRLSCAASGFTFNIYGMHWVRQAPGKGLEWVALISYDGNDKYFADSVKGRFTISRDNSKNTLYLQMNSLRAEDTAVYYCAKAVDTAVVTFFDYWGQGTLVTVSS
# VL: EIVMTQSPVTLSVSPGERATLSCRASQSVSSNLAWYQQKPGQAPRLLIYSASTRATGIPARFSGSGSGTEFTLTISSLQSEDLAVYYCQQYSNWPFTFGPGTKVDIK
# notes: as for B1
# B4: BC-1A8-IgG1 (antibody, V domains shown)
# VH: QVQLQQSGPGLVKPSQTLSLTCAISGDSVSSNSAAWNWIRQSPSRGLEWLGRTYYRSKWYNDYALSVKSRITINPETSKNQFSLQLNSVTPEDTAVYYCAREDGVGGTKDYFDYWGQGTLVTVSS
# VL: DIQMTQSPSSLSASVGDRVTITCQASQDIDNYLNWYQQKPGKAPKLLIYDVSNLEIGVPSRFSGSGSGTDFTFTISSLQPEDIATYYCQQYDNLPLTFGQGTRLEIK
# notes: Fully human VH/VL joined to the human IgG1 subtype, kappa light chain (RenMab mice)
# B5: BC-1F4-IgG1 (antibody, V domains shown)
# VH: B4 VH with N32D, A34S, A64T, L65V, E76D
# VL: B4 VL with D30S, V51A, I56T, S76N, I83F, Y87F, L96I
# notes: as for B1
# Assays:
# [1] = molecular target: T1, His-tagged human TNFR1 (Human …); assay: SPR Biacore 8K, antibody captured on Protein A chip
# Protocol: (§1) The binding affinity of the anti-TNFR2 antibodies to human TNFR2 and TNFR1 (Tumor necrosis factor receptor 1) were measured using surface plasmon resonance (SPR) using Biacore (Biacore, INC, Piscataway NJ) 8K biosensor equipped with pre-immobilized Protein A sensor chips.
# (§2) Purified anti-TNFR2 antibodies were diluted to 1 μg/mL and then injected into the Biacore 8K biosensor at 10 μL/min for about 50 seconds to achieve a desired protein density (e.g., about 50 response units (RU)). […] Dissociation was monitored for 600 seconds. The chip was regenerated after the last injection of each titration with Glycine (pH 2.0, 30 μL/min for 30 seconds).
# [2] = molecular target: T2, His-tagged human TNFR2 (Human …); assay: SPR Biacore 8K, antibody captured on Protein A chip, hTNFR2-His as analyte, 1:1 model
# Protocol: as §1, §2
# [3] = molecular target: T3, human TNFR2 (expressed on cells); assay: flow cytometry competition, CHO cells with human TNFR2, antibody 0.625 µg/mL, Biotin-hTNFα 0.5 µg/mL
# Protocol: (§3) 30 μl of Biotin-hTNFα (Acro Biosystems, Cat #: TNA-H82E1) was added to each well (with a final concentration of 0.5 μg/mL in each well). The cells with Biotin-hTNFα and the antibodies were incubated at 4° C. for 30 minutes.
# (§4) The signals for AF647 and PE were determined by flow cytometry (Thermo Attune NX).
# [4] = molecular target: T3, human TNFR2 (expressed on cells); assay: flow cytometry competition, CHO cells with human TNFR2, antibody 0.1565 µg/mL, Biotin-hTNFα 0.5 µg/mL
# Protocol: as §3, §4
# [5] = molecular target: T4, ΔCRD3-TNFR2 protein (with CRD3 …); assay: FACS on CHO-S cells with ΔCRD3-TNFR2
# Description: TNFR2 has four cysteine rich domains (CRD). In another experiment, FACS was used to detect the binding of anti-hTNFR2 antibodies to TNFR2 proteins with different structural domains. Secondary antibody (Alexa Fluor® 647 AffiniPure F(ab′) 2 Fragment Goat Anti-Human IgG, Fcγ fragment specific, Jackson ImmunoResearch Laboratories, Inc., Cat #: 151524) was used. The fluorescence-labeled secondary antibody can attach to the Fc region of the anti-hTNFR2 antibodies so that the anti-hTNFR2 antibodies that are bound to the ΔCRD cells can be detected by FACS. Specifically, ΔCRD1-TNFR2 protein (with CRD1 deleteion), ΔCRD2-TNFR2 protein (with CRD2 deleteion), ΔCRD3-TNFR2 protein (with CRD3 deleteion) or ΔCRD4-TNFR2 protein (with CRD4 deleteion) were expressed in CHO-S cells respectively, and then the binding between the cells and different anti-hTNFR2 antibodies was detected.
Binder,binding result [1],Kd [2] [nM],koff [2] [s⁻¹],kon [2] [M⁻¹ s⁻¹],percentage of tested cells that had Streptavidin signals [3] [%],percentage of tested cells that had Streptavidin signals [4] [%],binding result [5]
B1,no binding (tested: up to 200 nM analyte),5.1,0.000467,91500,60.2,55.2,
B2,no binding (tested: up to 200 nM analyte),3.89,0.00644,1.66e+06,80.4,82.7,
B3,no binding (tested: up to 200 nM analyte),9.5,0.00115,121000,77.3,74.3,no binding
B4,no binding (tested: up to 200 nM analyte),1.36,0.00126,924000,58.6,67.4,no binding
B5,no binding (tested: up to 200 nM analyte),2.21,0.00159,718000,61.9,76.2,no binding
